Experiment [1] addresses T1, full-length rat syntaxin-1A (reconstituted in liposomes, S-liposomes) (rat, UniProt P32851 1-288).
T1 construct: syntaxin-1A, rat, full length; For the NMR experiments the protein was 2H-I-13CH3-labelled (isoleucine delta1 methyl groups); also called Syx WT; liposome-anchored syntaxin-1; source: E. coli BL21(DE3), purified (Ni-NTA, thrombin, Superdex 200 in DPC), reconstituted in liposomes
Description: SEC; S-liposomes (2.29 mM lipid) with full-length syntaxin-1A incubated 1 h with 1.2 µM αSNAP or 1.2 µM Munc18-1, then mixed with 1.2 µM of the other (at once or 12 h at 4 °C); 25 mM HEPES pH 7.4, 150 mM KCl, 1 mM TCEP; liposomes and bound proteins elute near the void volume. As to conditions: both partners purified.

Experiment [2] addresses T1, full-length rat syntaxin-1A …. In words: liposome co-floatation; S-liposomes (0.75 mM lipid) with full-length syntaxin-1A pre-incubated 1 h at room temperature with 3 µM αSNAP (C-terminal His6-linker) or 3 µM Munc18-1, then 0-15 µM of the other protein (with or without 2.4 µM NSF) or 3 µM Munc18-1 at 4 °C for various times; Histodenz gradient, top layer by SDS-PAGE and Coomassie blue. As to conditions: both partners purified.

T1 sequence (P32851 whole entry): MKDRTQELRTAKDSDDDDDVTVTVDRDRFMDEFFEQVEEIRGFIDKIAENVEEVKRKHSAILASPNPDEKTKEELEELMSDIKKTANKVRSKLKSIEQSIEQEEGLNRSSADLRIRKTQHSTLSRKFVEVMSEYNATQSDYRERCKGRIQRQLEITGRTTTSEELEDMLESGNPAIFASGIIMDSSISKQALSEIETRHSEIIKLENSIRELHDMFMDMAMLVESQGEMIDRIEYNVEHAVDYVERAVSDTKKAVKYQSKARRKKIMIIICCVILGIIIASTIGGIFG

B1: full-length Bos Taurus αSNAP (natural protein, UniProt P81125 1-295, looked up)
chain: MDNSGKEAEAMALLAEAERKVKNSQSFFSGLFGGSSKIEEACEIYARAANMFKMAKNWSAAGSAFCQAAHVHLQLQSKHDAATCFVDAGNAFKKADPQEAINCLMRAIEIYTDMGRFTIAAKHHISIAEIYETELVDIEKAIAHYEQSADYYKGEESNSSANKCLLKVAGYAAQLEQYQKAIDIYEQVGTNAMDSPLLKYSAKDYFFKAALCHFCIDMLNAKLAVQKYEELFPAFSDSRECKRIKKLLEAHEEQNVDSYTEAVKEYDSISRLDQWLTTMLLRIKKTIQGDEEDLR
notes: alpha-SNAP, Bos taurus, full length; also called WT αSNAP; source: E. coli BL21(DE3), purified (Glutathione Sepharose, thrombin, Superdex 75)
For B1, the binding result in experiment [1] was “binds”.

B2: αSNAP with a C-terminal His6-linker (…) (natural protein, Bos Taurus, UniProt P81125 1-295, looked up)
chain: B1 chain
notes: Used in all liposome co-floatation assays so that the syntaxin-1 and αSNAP bands separate on the gels; also called αSNAP containing a linker at the C terminus; source: E. coli BL21(DE3), purified as the unmodified construct
Take B2: in experiment [2], the binding result is recorded as “binds”.
